Data from publication PMC6450946.
One block for each molecule: values may come before it.

Experiments:
[1] = target: SRM-HtrM fusion protein (H. marismortui SRM and HtrM joined by a flexible linker) expressed in H. salinarum (Haloarcula marismortui); assay: SDS-PAGE and Western blot; lysate of transformed H. salinarum (cells lysed in distilled water, sonicated); detection with Penta-His HRP conjugate
[2] = target: HtrM, cognate transducer of SRM from Haloarcula marismortui, as the C-terminal part of the SRM-HtrM fusion protein (Haloarcula marismortui)
[3] = target: HtrI, cognate transducer of SRI from Haloarcula marismortui, as part of the HmSRI-HtrI fusion protein (Haloarcula marismortui)

- stoichiometry N [1]: 2
Molecule: SRM-HtrM fusion protein (H. marismortui SRM and HtrM joined by a flexible linker) expressed in H. salinarum

- Photocycle kinetics (Tau value) of detergent-solubilized HmSRM-HtrM fusion, acidic (pH 6.1-6.5) [2]: 4.05 s
- Photocycle kinetics (Tau value) of detergent-solubilized HmSRM-HtrM fusion, alkaline (pH 7.6-7.9) [2]: 5.62 s
B1: Sensory rhodopsin SRM from Haloarcula marismortui, as the N-terminal part of the SRM-HtrM fusion protein (receptor)
chain: MAQEIVWYGAGAGAFFVSAVVFVWFAATRGNIRSSFYYLPPIHTSVAGAAYVAMALIAGGQLGDTVSITTLRFADWIVSTPIITYYLARLAGVDTQTRRLAVAANVVMIGVGYGFVSMSGSLRWIAFAVSTVAFIGLLYLYIKTFARKINAATASVRSLFQSLRDLTVVTWSLYPVVYFLGPLGTGIIQAPDLNFLVAVLDTIAKVGFMSILLVRYNSVETFVDSWSVAPAK

- Photocycle kinetics (Tau value) of detergent-solubilized HmSRI-HtrI fusion, acidic (pH 6.1-6.5) [3]: 2.38 s
- Photocycle kinetics (Tau value) of detergent-solubilized HmSRI-HtrI fusion, alkaline (pH 7.6-7.9) [3]: 4.49 s
B2: Sensory rhodopsin I from Haloarcula marismortui, as part of the HmSRI-HtrI fusion protein (receptor)
chain: MDAVSVVYGITAAGFAVGVAIVGFLYASLEGSDERPILAALALIPGVAGISYVAMVFGIGTVTIGETTLVGFRYLDWVVTTPLLVGFIGYTAGASRRAIFGVMAADALMILAGVGAVVAAGTLKWALFGVSAVFHISLFAYLYLIFPRSVPDDPQRIGLFSLLKNHVGLLWIAYPLVWLAGPEGLGFATYVGVSITYAFLDLLAKVPYVYFFYARRQVFATKLLRDSGDTTVTPAD
